Reference: publication PMC12610401, “The miR395b–ABI5 module regulates amylopectin branching and biosynthesis and affects lotus root quality”

B1: NnSS2 promoter probe (WT) (dsDNA)
DNA 1: CTTCCTCGGTTTTTCCACGTGTTTCTTCTGGAGTAT
DNA 2: ATACTCCAGAAGAAACACGTGGAAAAACCGAGGAAG
B2: NnSS2 promoter mutant probe (dsDNA)
DNA 1: CTTCCTCGGTTTTTCAAAAAATTTCTTCTGGAGTAT
DNA 2: ATACTCCAGAAGAAATTTTTTGAAAAACCGAGGAAG
B3: NnSBEII promoter probe (WT) (dsDNA)
DNA 1: GTGGCAACGACTGGTCACGTGACTTACGTCACCCAT
DNA 2: ATGGGTGACGTAAGTCACGTGACCAGTCGTTGCCAC
B4: NnSBEII promoter mutant probe (dsDNA)
DNA 1: GTGGCAACGACTGGTAAAAAAACTTACGTCACCCAT
DNA 2: ATGGGTGACGTAAGTTTTTTTACCAGTCGTTGCCAC

Assays:
[1] = biological target: T1, NnABI5 (ABA Insensitive 5) (Nelumbo nucifera, UniProt A0A1U8B646 1-478); test: EMSA; unlabelled probe weakens the shift in a dose-dependent way; Not stated; EMSA with Beyotime chemiluminescent nucleic acid detection kit; conditions: protein: recombinant; tags: His (pCold TF vector); chain copies: 2; blunt
T1 sequence: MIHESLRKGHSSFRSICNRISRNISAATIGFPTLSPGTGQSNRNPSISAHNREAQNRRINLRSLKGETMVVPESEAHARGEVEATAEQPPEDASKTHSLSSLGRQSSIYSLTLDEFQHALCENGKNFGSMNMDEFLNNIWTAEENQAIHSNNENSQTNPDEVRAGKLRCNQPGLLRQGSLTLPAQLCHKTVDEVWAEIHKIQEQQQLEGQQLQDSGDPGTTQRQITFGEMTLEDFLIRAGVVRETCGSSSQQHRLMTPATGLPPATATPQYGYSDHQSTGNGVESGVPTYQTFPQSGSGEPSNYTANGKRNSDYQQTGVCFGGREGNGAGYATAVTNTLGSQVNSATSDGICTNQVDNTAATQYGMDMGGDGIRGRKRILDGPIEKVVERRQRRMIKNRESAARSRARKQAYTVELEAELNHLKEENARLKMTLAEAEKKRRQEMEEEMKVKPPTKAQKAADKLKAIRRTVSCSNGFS

[2] = biological target: T1, NnABI5 (ABA Insensitive 5); test: EMSA; Not stated; EMSA with Beyotime chemiluminescent nucleic acid detection kit; conditions: protein: recombinant; tags: His (pCold TF vector); chain copies: 2; blunt

Binder | binding result [1] | binding result [2]
B1 | binds | –
B2 | – | no binding
B3 | binds | –
B4 | – | no binding
